Experimental findings from patent US20150232568A1 (published 2015) are described below.

Common to all, as to test: Biacore (SPR)
For one experiment, the target named is human Jag1-DSL-EGF1-4 (UniProt P78504 34-377).
For experiment [1], the target named is T1, murine Jag2-DSL-EGF1-4 (M27-E388) (UniProt Q9QYE5 27-388).
T1 chain: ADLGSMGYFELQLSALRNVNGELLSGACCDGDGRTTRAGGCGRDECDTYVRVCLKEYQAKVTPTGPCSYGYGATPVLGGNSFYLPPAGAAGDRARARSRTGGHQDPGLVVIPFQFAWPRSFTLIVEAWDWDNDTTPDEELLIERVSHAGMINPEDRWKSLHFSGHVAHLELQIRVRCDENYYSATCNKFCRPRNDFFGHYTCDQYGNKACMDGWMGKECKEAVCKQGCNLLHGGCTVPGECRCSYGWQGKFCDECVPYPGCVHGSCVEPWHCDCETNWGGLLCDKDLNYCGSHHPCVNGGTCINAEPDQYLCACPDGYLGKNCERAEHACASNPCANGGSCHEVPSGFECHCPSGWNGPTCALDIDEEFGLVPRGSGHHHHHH

Experiment [2] addresses T2, human Jag2-DSL-EGF1-4 (R2-E388) (UniProt Q9Y219 24-388).
T2 chain: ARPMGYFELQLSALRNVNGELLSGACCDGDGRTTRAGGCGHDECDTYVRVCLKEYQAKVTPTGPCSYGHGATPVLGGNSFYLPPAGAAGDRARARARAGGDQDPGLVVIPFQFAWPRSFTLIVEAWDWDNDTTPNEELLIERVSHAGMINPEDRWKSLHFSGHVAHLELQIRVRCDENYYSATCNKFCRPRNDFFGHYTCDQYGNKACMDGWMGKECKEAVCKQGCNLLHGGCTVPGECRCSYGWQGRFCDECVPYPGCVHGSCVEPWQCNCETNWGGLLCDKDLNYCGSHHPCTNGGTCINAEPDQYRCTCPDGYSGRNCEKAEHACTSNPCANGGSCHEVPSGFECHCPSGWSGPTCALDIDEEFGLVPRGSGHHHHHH

Positions count from the first letter of the chain named.

B1: D-1 (antibody, V domains shown)
VH: EVQLVESGGGLVQPGGSLRLSCAASGFTFTSNYMSWVRQAPGKGLEWVSTIWYQSGTTDYADSVKGRFTISADTSKNTAYLQMNSLRAEDTAVYYCARDSPWPSKGFGMDVWGQGTLVTVSS
VL: DIQMTQSPSSLSASVGDRVTITCRASQSISSYLAWYQQKPGKAPKLLIYGASSRASGVPSRFSGSGSGTDFTLTISSLQPEDFATYYCQQYLSSPITFGQGTKVEIK
As for B1, the Kd with human Jag1-DSL-EGF1-4 stood at 0.52 nM; in experiment [1], 14 nM; in experiment [2], 4.6 nM.

B2: D-2 (antibody, V domains shown)
VH: B1 VH with T28S, F29V, T30K, S31P, N32M, S35T, D99S, P103S, S104G, K105E
VL: B1 VL with L92S, I96L
Molecule B2 came in with a dissociation constant (Kd) with human Jag1-DSL-EGF1-4 of 1.1 nM.

B3: D (antibody, V domains shown)
VH: B1 VH with D99S, P103S, S104G, K105E
VL: B1 VL with L92Y, I96L
Take B3: the Kd with human Jag1-DSL-EGF1-4 turned out to be 13 nM.

B4: C-1 (antibody, V domains shown)
VH: EVQLVESGGGLVQPGGSLRLSCAASGFTFTNSDIHWVRQAPGKGLEWVGGITPADGYTDYADSVKGRFTISADTSKNTAYLQMNSLRAEDTAVYYCARSYWSSSPGSAFDYWGQGTLVTVSS
VL: DIQMTQSPSSLSASVGDRVTITCRASQDVSTAVAWYQQKPGKAPKLLIYSASFLYSGVPSRFSGSGSGTDFTLTISSLQPEDFATYYCQQSYISPSTFGQGTKVEIK
As to B4, the Kd with human Jag1-DSL-EGF1-4 was determined as 0.31 nM; in experiment [1], 0.73 nM; in experiment [2], 0.12 nM.

B5: B-1 (antibody, V domains shown)
VH: EVQLVESGGGLVQPGGSLRLSCAASGFTFTSYDIHWVRQAPGKGLEWVGGISPADGDTDYANSVKGRFTISADTSKNTAYLQMNSLRAEDTAVYYCARNDYDVRTVGSGMDYWGQGTLVTVSS
VL: B4 VL with I93T, P95A, S96P
Turning to B5, in experiment [1], binding was characterised by a dissociation constant (Kd) of 1.1 nM.

B6: B (antibody, V domains shown)
VH: B5 VH with T105S
VL: B4 VL with I93T, S94T, S96P
As to B6, the Kd in experiment [1] and in experiment [2] was 1 nM in each case.

B7: A (antibody, V domains shown)
VH: EVQLVESGGGLVQPGGSLRLSCAASGFTFSNYGIHWVRQAPGKGLEWVGWITPDGGYTDYADSVKGRFTISADTSKNTAYLQMNSLRAEDTAVYYCARAGSWFAYWGQGTLVTVSS
VL: B4 VL with I93T, S94T, S96P
Consider B7, for which the equilibrium dissociation constant (Kd) with human Jag1-DSL-EGF1-4 was found to be 94 nM.

B8: B-3 (antibody, V domains shown)
VH: B5 VH with T105F
VL: B4 VL with Y92F, I93T, S94A, S96P
Consider B8, for which, in experiment [1], the equilibrium dissociation constant (Kd) worked out at 0.3 nM.

B9: A-2 (antibody, V domains shown)
VH: B7 VH with P53G, D54N, T58S
VL: B4 VL with I93T, S94T, S96P
B9 yielded a dissociation constant (Kd) with human Jag1-DSL-EGF1-4 of 0.3 nM.

B10: B-2 (antibody, V domains shown)
VH: B5 VH with T105S
VL: B4 VL with Y92W, I93T, S94A, S96P
The molecule B10 showed a Kd in experiment [1] of 0.0025 nM.

B11: C (antibody, V domains shown)
VH: B4 VH with S102N, S103N, A108G
VL: B4 VL with I93T, S94T, S96P
B11 gave an equilibrium dissociation constant (Kd) with human Jag1-DSL-EGF1-4 of 2.3 nM.
